Measurements reported in IntAct's records for PubMed 39938803.

B1: Retinoblastoma-associated protein (Homo sapiens), P06400 (parent)
chain: MPPKTPRKTAATAAAAAAEPPAPPPPPPPEEDPEQDSGPEDLPLVRLEFEETEEPDFTALCQKLKIPDHVRERAWLTWEKVSSVDGVLGGYIQKKKELWGICIFIAAVDLDEMSFTFTELQKNIEISVHKFFNLLKEIDTSTKVDNAMSRLLKKYDVLFALFSKLERTCELIYLTQPSSSISTEINSALVLKVSWITFLLAKGEVLQMEDDLVISFQLMLCVLDYFIKLSPPMLLKEPYKTAVIPINGSPRTPRRGQNRSARIAKQLENDTRIIEVLCKEHECNIDEVKNVYFKNFIPFMNSLGLVTSNGLPEVENLSKRYEEIYLKNKDLDARLFLDHDKTLQTDSIDSFETQRTPRKSNLDEEVNVIPPHTPVRTVMNTIQQLMMILNSASDQPSENLISYFNNCTVNPKESILKRVKDIGYIFKEKFAKAVGQGCVEIGSQRYKLGVRLYYRVMESMLKSEEERLSIQNFSKLLNDNIFHMSLLACALEVVMATYSRSTSQNLDSGTDLSFPWILNVLNLKAFDFYKVIESFIKAEGNLTREMIKHLERCEHRIMESLAWLSDSPLFDLIKQSKDREGPTDHLESACPLNLPLQNNHTAADMYLSPVRSPKKKGSTTRVNSTANAETQATSAFQTQKPLKSTSLSLFYKKVYRLAYLRLNTLCERLLSEHPELEHIIWTLFQHTLQNEYELMRDRHLDQIMMCSMYGICKVKNIDLKFKIIVTAYKDLPHAVQETFKRVLIKEEEYDSIIVFYNSVFMQRLKTNILQYASTRPPTLSPIPHIPRSPYKFPSSPLRIPGGNIYISPLKSPYKISEGLPTPTKMTPRSRILVSIGESFGTSEKFQKINQMVCNSDRVLKRSAEGSNPPKPLKKLRFDIEGSDEADGSKHLPGESKFQQKLAEMTSTRTRMQKQKMNDSMDTSNKEEK

What was measured:
e2f1_human E2F1, Q01094 [1] = variants of: B1; settings: with e2f1_human E2F1, Q01094
ve7_hpv16 E7, P03129 [2] = variants of: B1; settings: with ve7_hpv16 E7, P03129
e2f1_human E2F1, Q01094 [3] = variants of: B1; settings: with e2f1_human E2F1, Q01094; remark: listed apart in the source
ve7_hpv16 E7, P03129 [4] = variants of: B1; settings: with ve7_hpv16 E7, P03129; remark: listed apart in the source

Chain of e2f1_human E2F1, Q01094 (Q01094 whole entry): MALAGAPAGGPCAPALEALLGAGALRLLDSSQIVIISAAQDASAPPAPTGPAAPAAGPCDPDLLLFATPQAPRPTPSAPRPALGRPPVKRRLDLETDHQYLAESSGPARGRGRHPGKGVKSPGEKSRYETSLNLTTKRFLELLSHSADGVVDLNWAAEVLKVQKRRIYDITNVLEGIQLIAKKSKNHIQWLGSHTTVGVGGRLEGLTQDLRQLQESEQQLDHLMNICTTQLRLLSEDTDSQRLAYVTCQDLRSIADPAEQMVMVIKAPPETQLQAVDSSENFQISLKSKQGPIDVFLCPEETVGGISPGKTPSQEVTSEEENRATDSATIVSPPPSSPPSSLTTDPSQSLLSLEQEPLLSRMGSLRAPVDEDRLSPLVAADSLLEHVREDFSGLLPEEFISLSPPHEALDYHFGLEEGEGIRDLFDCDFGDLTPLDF
Chain of ve7_hpv16 E7, P03129 (P03129 whole entry): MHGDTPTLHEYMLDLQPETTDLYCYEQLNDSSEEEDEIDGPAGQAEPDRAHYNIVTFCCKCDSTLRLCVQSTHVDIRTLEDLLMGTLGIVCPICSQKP

Variant | effect of a mutation on the interaction (e2f1_human E2F1, Q01094 [1]) | effect of a mutation on the interaction (ve7_hpv16 E7, P03129 [2]) | effect of a mutation on the interaction (e2f1_human E2F1, Q01094 [3]) | effect of a mutation on the interaction (ve7_hpv16 E7, P03129 [4])
R621C | decreasing interaction strength | decreasing interaction strength |  | 
R621H |  | decreasing interaction strength | decreasing interaction strength | 
R621S |  | decreasing interaction strength | decreasing interaction strength | 
D697E | disrupting interaction strength | decreasing interaction strength | decreasing interaction strength | 
T687I |  | decreasing interaction strength | decreasing interaction strength | 
E554K |  | decreasing interaction strength | disrupting interaction strength | 
K548N |  | decreasing interaction strength | disrupting interaction strength | 
R451H |  | decreasing interaction strength | decreasing interaction strength | 
R451S |  | decreasing interaction strength | decreasing interaction strength | 
R741S |  | decreasing interaction strength | decreasing interaction strength | 
H555Y |  | decreasing interaction strength | disrupting interaction strength | 
R611S |  | with no effect | decreasing interaction strength | decreasing interaction strength
S671F |  | decreasing interaction strength | decreasing interaction strength | 
Y606C |  | decreasing interaction strength | decreasing interaction strength | 
E693A |  | decreasing interaction strength | decreasing interaction strength | 
M695I | disrupting interaction strength | decreasing interaction strength | decreasing interaction strength | 
E492Q |  | decreasing interaction strength | decreasing interaction strength | 
E440K | decreasing interaction strength | with no effect | increasing interaction strength | decreasing interaction strength
A525G |  | decreasing interaction strength | decreasing interaction strength | 
L572I |  | increasing interaction strength | decreasing interaction strength | decreasing interaction strength
L550I |  | increasing interaction strength | decreasing interaction strength | 
K530I |  | decreasing interaction strength | disrupting interaction strength | 
S463L |  | decreasing interaction strength | decreasing interaction strength | 

Variant | effect of a mutation on the interaction (e2f1_human E2F1, Q01094 [1]) | effect of a mutation on the interaction (ve7_hpv16 E7, P03129 [2]) | effect of a mutation on the interaction (e2f1_human E2F1, Q01094 [3]) | effect of a mutation on the interaction (ve7_hpv16 E7, P03129 [4])
K462T |  | decreasing interaction strength | decreasing interaction strength | 
A490S |  | decreasing interaction strength | decreasing interaction strength | 
A490V |  | decreasing interaction strength | decreasing interaction strength | 
R656Q |  | decreasing interaction strength | disrupting interaction strength | 
H673Y |  | decreasing interaction strength | decreasing interaction strength | 
H673P | disrupting interaction strength | decreasing interaction strength | decreasing interaction strength | 
S751Y | disrupting interaction strength | disrupting interaction strength | decreasing interaction strength | 
E533K |  | decreasing interaction strength | disrupting interaction strength | 
I703V | disrupting interaction strength | decreasing interaction strength | decreasing interaction strength | 
I703F | disrupting interaction strength | decreasing interaction strength | decreasing interaction strength | disrupting interaction strength
E675Q |  | decreasing interaction strength | decreasing interaction strength | 
Q504E |  | with no effect | decreasing interaction strength | decreasing interaction strength
S474N |  | decreasing interaction strength | decreasing interaction strength | 
S474R |  | with no effect | disrupting interaction strength | decreasing interaction strength
S474I |  | decreasing interaction strength | disrupting interaction strength | 
H699P |  | decreasing interaction strength | decreasing interaction strength | 
T620M |  | decreasing interaction strength | decreasing interaction strength | 
M546I |  | decreasing interaction strength | increasing interaction strength | 
R556Q |  | with no effect | decreasing interaction strength | decreasing interaction strength
Q444L | decreasing interaction strength | increasing interaction strength | with no effect | 
T738I | disrupting interaction strength | decreasing interaction strength | decreasing interaction strength | disrupting interaction strength
I679F |  | decreasing interaction strength | decreasing interaction strength | 
